From article PMC8902471

Assays:
Assay in all cases: EMSA
[1] = biological target: T1, Ets-1 ΔN301 MT1 (Mus musculus (murine), UniProt P27577 301-440, L337A;W338A)
T1 sequence: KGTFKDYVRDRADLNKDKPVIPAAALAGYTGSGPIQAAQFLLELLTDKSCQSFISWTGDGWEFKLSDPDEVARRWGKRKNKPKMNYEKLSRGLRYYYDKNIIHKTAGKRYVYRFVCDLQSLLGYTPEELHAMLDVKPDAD

[2] = biological target: T2, Ets-1 ΔN301 MT3 (Mus musculus (murine), UniProt P27577 301-440, L337A)
T2 sequence: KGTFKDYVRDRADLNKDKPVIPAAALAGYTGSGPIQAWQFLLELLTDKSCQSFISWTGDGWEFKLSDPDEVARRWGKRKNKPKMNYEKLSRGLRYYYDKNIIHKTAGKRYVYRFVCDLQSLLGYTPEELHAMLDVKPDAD

[3] = biological target: T3, Ets-1 ΔN301 MT2 (Mus musculus (murine), UniProt P27577 301-440, L393A;Y396A)
T3 sequence: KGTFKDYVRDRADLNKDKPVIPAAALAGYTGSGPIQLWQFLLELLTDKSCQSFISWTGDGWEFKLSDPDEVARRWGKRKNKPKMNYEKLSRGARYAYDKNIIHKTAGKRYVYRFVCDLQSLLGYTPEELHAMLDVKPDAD

[4] = biological target: T4, Ets-1 ΔN301 MT4 (Mus musculus (murine), UniProt P27577 301-440, W338A)
T4 sequence: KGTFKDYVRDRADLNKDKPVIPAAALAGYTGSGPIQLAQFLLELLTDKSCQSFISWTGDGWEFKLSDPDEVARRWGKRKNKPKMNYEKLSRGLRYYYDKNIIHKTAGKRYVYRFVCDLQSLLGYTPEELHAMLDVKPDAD

Measured: binding result

B1: 27-bp high-affinity ETS site DNA (dsDNA)
DNA 1: TCGACGGCCAAGCCGGAAGTGAGTGCC
DNA 2: TCGAGGCACTCACTTCCGGCTTGGCCG
no binding: all assays above
